From PMC5216073, “Architecture and mechanism of the late endosomal Rab7-like Ypt7 guanine nucleotide exchange factor complex Mon1–Ccz1” (Nature Communications, 2017)

How the values were obtained:
[1] = target: the molecule itself; experiment: SEC; gel filtration of the full-length CtMC1 complex, co-expressed in E. coli and purified on a glutathione column by GST-CtMon1, tags cleaved
[2] = target: CtYpt7 wild type (Chaetomium thermophilum Ypt7) (Chaetomium thermophilum); experiment: cell-based or functional assay
[3] = target: T1, CtMon1, full length (Chaetomium thermophilum Mon1) (Chaetomium thermophilum, UniProt G0SGS3 1-665); experiment: SEC; gel filtration of the full-length CtMC1 complex, co-expressed in E. coli and purified on a glutathione column by GST-CtMon1, tags cleaved; settings: both partners purified
T1 construct: Mon1 of Chaetomium thermophilum, NCBI XP_006697030; C-terminal domain printed as aa 486-665; GST cleaved with PreScission protease; source: E. coli Rosetta (DE3), co-expressed with CtCcz1, purified (glutathione column, size exclusion chromatography); not shown: GST, N-terminal, cleaved
T1 sequence (looked up): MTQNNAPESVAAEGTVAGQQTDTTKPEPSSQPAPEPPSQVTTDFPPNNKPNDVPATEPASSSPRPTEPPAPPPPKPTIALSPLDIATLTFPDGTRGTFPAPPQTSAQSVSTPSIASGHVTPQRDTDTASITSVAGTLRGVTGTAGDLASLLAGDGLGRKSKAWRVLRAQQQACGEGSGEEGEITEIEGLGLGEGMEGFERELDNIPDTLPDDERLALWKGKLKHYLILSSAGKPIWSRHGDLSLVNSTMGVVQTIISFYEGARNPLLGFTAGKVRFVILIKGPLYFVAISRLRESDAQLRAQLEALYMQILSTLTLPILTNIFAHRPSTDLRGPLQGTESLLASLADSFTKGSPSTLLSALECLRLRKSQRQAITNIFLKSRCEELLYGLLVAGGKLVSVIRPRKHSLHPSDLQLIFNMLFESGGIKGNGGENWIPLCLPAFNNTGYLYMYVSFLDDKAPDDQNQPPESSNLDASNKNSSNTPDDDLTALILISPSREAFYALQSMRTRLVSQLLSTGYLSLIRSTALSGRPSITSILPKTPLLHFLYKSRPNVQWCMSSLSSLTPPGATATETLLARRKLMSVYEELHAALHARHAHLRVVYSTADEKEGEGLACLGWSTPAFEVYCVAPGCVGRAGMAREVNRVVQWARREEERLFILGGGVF

Binder	stoichiometry N [1]	kcat/KM of MC1-stimulated exchange of MANT-GDP for GTP on Ypt7 (fluorescence GEF assay, 0-2.0 μM CtMC1, 25 °C) [2]	stoichiometry N [3]
full-length CtMC1 complex (CtMon1-CtCcz1) (complex, Chaetomium thermophilum, Mon1 of Chaetomium thermophilum, NCBI XP_006697030; codon-optimized synthetic gene; Ccz1 of Chaetomium thermophilum, NCBI XP_006695440; The Mon1-Ccz1 heterodimer forms a dimer of heterodimers (two copies of each protein); the rows of m3 with itself mean the association of two heterodimers; also called CtMC1full; Mon1-Ccz1 complex; source: E. coli Rosetta (DE3), co-expressed, purified (glutathione …)) chain 1: MTQNNAPESVAAEGTVAGQQTDTTKPEPSSQPAPEPPSQVTTDFPPNNKPNDVPATEPASSSPRPTEPPAPPPPKPTIALSPLDIATLTFPDGTRGTFPAPPQTSAQSVSTPSIASGHVTPQRDTDTASITSVAGTLRGVTGTAGDLASLLAGDGLGRKSKAWRVLRAQQQACGEGSGEEGEITEIEGLGLGEGMEGFERELDNIPDTLPDDERLALWKGKLKHYLILSSAGKPIWSRHGDLSLVNSTMGVVQTIISFYEGARNPLLGFTAGKVRFVILIKGPLYFVAISRLRESDAQLRAQLEALYMQILSTLTLPILTNIFAHRPSTDLRGPLQGTESLLASLADSFTKGSPSTLLSALECLRLRKSQRQAITNIFLKSRCEELLYGLLVAGGKLVSVIRPRKHSLHPSDLQLIFNMLFESGGIKGNGGENWIPLCLPAFNNTGYLYMYVSFLDDKAPDDQNQPPESSNLDASNKNSSNTPDDDLTALILISPSREAFYALQSMRTRLVSQLLSTGYLSLIRSTALSGRPSITSILPKTPLLHFLYKSRPNVQWCMSSLSSLTPPGATATETLLARRKLMSVYEELHAALHARHAHLRVVYSTADEKEGEGLACLGWSTPAFEVYCVAPGCVGRAGMAREVNRVVQWARREEERLFILGGGVF chain 2: MTTPVSPSPSGIIPAQLGFLAIYNPALGTTDETLEDQIVYYATASTLSQARRRHRRPRRRDRQRAQSVVKDSRPNAAGATGDSEAVAEDKDPVSKEERHERLRQIGLAQGMVEFAKSFSDGEPVDTIDTEKARVILVEVEEGWWILASIDLTRLPLPQIKTPTSSSAPPPAPNLNPLPPEPAYEYSSREVKPPSLLRADLLRAYDLFLLHHGSSLSSLLASQGRAQLVASLTRFWDHFLATWNVLLHGNPACDVFGGIKLAASGELGIGVGEEERGSGEREVLEGLVERVEGLVDVVVGRYGGPPSEKGPEEEQWLGLGGEVGEEDGAVFLGVGALDRKSLRGVVQWMEEVYVWGENAFGVGGSRAARRRRKRGAKESRVLKTGAGKKIPIGTGTGTEGKRGEAATPDMAGTPGSMDKLFSYLTLGYGTSWSLGLSGTSTPSDSDPGSVSKGMVESSESGKPRRDLSTGHFLLGLSECSEEELTSSQANPKAIFVELKPSYQHPSRKIPPEDPQPLGKVGPELPRDHTARLRPVIYVSQPFIYILLFSEITPSPSTWPTLAESLHAQLSPLQKPLLHSTSYRPERPVVETTSSSGTTTQHQIFDLVYDTETLTLQSTIPNIPDPFPYSATTPTGHSTGQQHHQQSIWTRVEALQTHAQILAILSSGRAIPTDPSSFTHLPWEEGERTCKTARGWWIVWTRVVEHSPPDAVSLHHARDDDDNDDDASCSVLGHLRSVSSSHAAGSTSSSSGSGFGLGAIPGLGGLGGWAADGATRLAQGIGIDTRRYVEGLLTSLGR	2	21000 M⁻¹ s⁻¹	
CtCcz1, full length (Chaetomium thermophilum Ccz1) (natural protein, UniProt G0SD94 1-796, looked up, Ccz1 of Chaetomium thermophilum, NCBI XP_006695440; C-terminus printed as residues 250-796; His6-SUMO cleaved with SUMO protease; source: E. coli Rosetta (DE3), co-expressed with CtMon1, purified (glutathione column, size exclusion chromatography); not shown: His6, N-terminal, cleaved; SUMO, N-terminal, cleaved) MTTPVSPSPSGIIPAQLGFLAIYNPALGTTDETLEDQIVYYATASTLSQARRRHRRPRRRDRQRAQSVVKDSRPNAAGATGDSEAVAEDKDPVSKEERHERLRQIGLAQGMVEFAKSFSDGEPVDTIDTEKARVILVEVEEGWWILASIDLTRLPLPQIKTPTSSSAPPPAPNLNPLPPEPAYEYSSREVKPPSLLRADLLRAYDLFLLHHGSSLSSLLASQGRAQLVASLTRFWDHFLATWNVLLHGNPACDVFGGIKLAASGELGIGVGEEERGSGEREVLEGLVERVEGLVDVVVGRYGGPPSEKGPEEEQWLGLGGEVGEEDGAVFLGVGALDRKSLRGVVQWMEEVYVWGENAFGVGGSRAARRRRKRGAKESRVLKTGAGKKIPIGTGTGTEGKRGEAATPDMAGTPGSMDKLFSYLTLGYGTSWSLGLSGTSTPSDSDPGSVSKGMVESSESGKPRRDLSTGHFLLGLSECSEEELTSSQANPKAIFVELKPSYQHPSRKIPPEDPQPLGKVGPELPRDHTARLRPVIYVSQPFIYILLFSEITPSPSTWPTLAESLHAQLSPLQKPLLHSTSYRPERPVVETTSSSGTTTQHQIFDLVYDTETLTLQSTIPNIPDPFPYSATTPTGHSTGQQHHQQSIWTRVEALQTHAQILAILSSGRAIPTDPSSFTHLPWEEGERTCKTARGWWIVWTRVVEHSPPDAVSLHHARDDDDNDDDASCSVLGHLRSVSSSHAAGSTSSSSGSGFGLGAIPGLGGLGGWAADGATRLAQGIGIDTRRYVEGLLTSLGR			1
